Assay [1] addresses recombinant His-tagged HIV-1 integrase P15 (A128T/K173Q) (IN^P15) (HIV-1 (NL4-3)). In words: SEC. A general note: Size exclusion chromatography separates by hydrodynamic size, large species first.
The target of assay [2] is recombinant His-tagged HIV-1 integrase P20 (A128T/K173Q/N254K) (IN^P20) (HIV-1 (NL4-3)). As to the kind of experiment: SEC.
The target in assay [3] is recombinant His-tagged HIV-1 integrase P26 (A128T/H171Q/K173Q/N254K) (IN^P26) (HIV-1 (NL4-3)). As to the kind of experiment: SEC.
The target is the same in assay [4]. In words: cross-linking.
Assay [5] addresses recombinant His-tagged HIV-1 integrase R269A/K273A (IN^RAKA) (HIV-1 (NL4-3)). In words: cross-linking.

The record followed here is doi:10.1101/836718.

As usually defined, the stoichiometry N is a count of units in the complex or per binding partner.

On to “recombinant His-tagged HIV-1 integrase P15 (A128T/K173Q) (IN^P15) (enzyme)”, for which, in assay [1], the stoichiometry N is 2. On to “recombinant His-tagged HIV-1 integrase P20 (A128T/K173Q/N254K) (IN^P20) (enzyme)”, for which, in assay [2], the stoichiometry N stood at 2. As to “recombinant His-tagged HIV-1 integrase P26 (A128T/H171Q/K173Q/N254K) (IN^P26) (enzyme)”, in assay [3], the stoichiometry N came to 2. Besides, in assay [4], the multimer ratio, dimers came out at 19.6%; the multimer ratio, tetramers was determined as 3.3%; the stoichiometry N worked out at 4. Turning to “recombinant His-tagged HIV-1 integrase R269A/K273A (IN^RAKA) (enzyme)”, in assay [5], the stoichiometry N came to 4.
